In the NTF2 design screens of Basanta et al. (2020):

Assay: protease stability score; higher = more stable; yeast display proteolysis, trypsin and chymotrypsin;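 note: log10 excess protease needed over predicted unfolded state with 0 meaning unfolded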

Sequence | protease stability score
DRERLADELRRRLEKVMTTGDPTELDKLMDPNARILYGDQKFHGREHVKEFAKTLNDQYDHVTIRLVSYDIKNGEIHIVVDVVFRHNGQTRTKRINFVARVHGDKVKIESINIP | 1.3
EEENQKLAKKFITAVNKGNPKELNENVDPNARLVIGDKTIHGRETLDRWAKKVKDDMRNHWHVTSLRVSNGDIKADVKVVINHNGKPDDFTLDMTMEVHNGKIKRMDARDSQ | 0.157
DEDDVQHAQKLVEENDEDKLKRMFPPDARAHIGDKEVHGMDKWADILKTLHHKADSVHFKHVSVSGNSVNVNFVMVVDGQSIEFVLVIDVHNGRARRLRIDFRNEEQQKLFEKLIS | 1.3
DEKTAQDTAKEIVKYWEQGDFEKLNKNADKNVRIRYGDKDYSGRDNFQELQKKFREHVDHVEVHSVDVEGDKIRVVIMFVVNGKHMVMEFVVDYHNGHLKSVSVDARNPDQKKRADK | 0.46
DDQAKRIVDEILTNMRTGDEDKLKTLIDPNARARVGEKEVHGWDDALKEIADKLRDIRIQIDRFSVKVTGDKVKIDFTAQNEHNGQPSTKKYERNYKIKNGRVKHFEDVSTQ | -0.192
DDSLEKELEDIMRTGNFEELVKNADKDARAQYGNRTYHGREDAKEAAHQFRKHVDSIQIDSIHRHNGHMEVDMQVNINGRNVRATMTIEAHNGRVKQFRVEVTDEEFHKTLHRLLE | 0.929
DEELRRRLEKFFRDLRNGNESEAVKLVDPNARFNIGDTEYHGMHDYARELLRQRHKLNWHVRQVTIEAKNGHVNITMSVQFNVNGRPDSYTNTVRAVLHNGRVKEMSNRVPKDQLHKIKK | 0.209
DHETHMEKFFEDQQKIRNKGDEDKVRNLFDPNARATYGDKTYQGREQIDKFENDVLRRVDHVNVQLRNVRVHNGRADFDARVVFKVNGRHERNHIRITVEINNGRIVIQSVHYG | 0.141
DKDAARRVQEMIRQQQTGNPTEVEEQADKDVEFKVGDKVVHGRRELKKEVETHKRESRLEVQKIEIKDHGDKAKLIIYFRVHENGEPRKRTVQVRAKYQNGKVKMIEVDSTK | -0.006
DEHDITKIMEEIAKVIRNNDEKRLVEMADPNVRVIVGDKEFQGRDEMEKFNHEYSRQADKVQVVSVNVNGNRITIEVTANINGRDLQFVVVFEIKNGTIENVHVNFTNPEVLRQAES | 1.19
DEEVEDLYQKIKRAQETGDHKQLRDNFDEEVRIKVGDKTIHGMTRAAKKITREWRHINIDVKVEHVQISNGRLRVRYRFVENDNGKPKTTAANFSMEAHNGRVKHVHVQDDS | 0.112
DEEDLKHMNENFESGNPDQIVEMFDKDARITVGNKKYRGREDIRKFAEMIRKQVDNRRLKSVEVEGNKFRIQWMFVVNGRRIEAVLHVHAHNGKVKEMSIEVTNPEDQTQYDRDAD | 1.66
EEELRNVYRDLLEAEERGNPDDIKRLVDPNARLQIGDKEIHGREHLMRFVEEVRKEIRFEIDRLDVTATGETAKVDARVKQNHNGQPESWHYTVQVKYHNGRIVNLRMRRTS | 1.31
DEREEEKMAEDLLNAVERNNPDHAQKMVDENARVVIGDKDVHGRERMREAIKRQKEQFDRFRWTDVKVDNGRVRAQAVYERNGRTHHVDLNAVIHNGRAKSVRIEEK | 0.022
DEEQVQKVVDKLIKAVQNGNRKQIVDLVKENVEFTLADETYKGKDDVQTVIKRLHEVGAEVHVDRYDVRGDTAHADTRWHMDDQEMHVTVEYVVRGDRVEQVHVQWSEEAKKVHKKG | -0.044
DEDLLRKIKQLLRAFEDNNEDQLRKNADPNARFVYGDKHIHGMEEAMRHQVTRYKEIRIERQIDTMSVTNGRANVQFTVVENHNGRPDTFHVQVDIKAHNGRVHTIEYEIHK | 0.387
DEENKKQAERLYTALEKNNPEELKKLADPNARVEVGDTTYHGMRKFLRDLAQTLKELRVEVIEIEIDVQGNQVTAHVHVRVEKNGQPDEFVLIFHFELSNGRIKRVRVERHQ | 1.12
DEDEEETLAQTWIKLMETGDPEQNMENVDPNVKVTYGDKTLHGREQFSDWEKKLHERVDRIEIKKMDVHNGSIRIVVVNDVNGKTKRFVVHLIYENGRLKSAKETDQ | 0.413
DEEEQERAMEKLDHAIEKGDPDDAVELLDENADAVIGDKRYHGREAATTFMHELRKQIDHIHIRDMQIDNGRAHIEVDARHNGQERKINVVFVFHNGRATSMENRSE | 1.02
DEEELMNRFWETMERIMEKGDEDTMRKQVDPNAKAEYGDKTVHGRHQFAKFWIEQARRADHIKFDIKSIDVKPPTIVVRLTVKFNVNGTNHKRDISIVFKVHNGRIVLHNAHEN | 1.02
DEEARKEIKKAARAYKTGDWQELVHQMDEDVKVEYGDHKIDGHEQVQKWVDENRKQLTMSVKSLSVELSGNTASVDMKHDARHNGRPRTQTAHIEIQAHNGRLKRVKIEYTQ | -0.178
DEEAARKFEHALRVREHGNEHQLQELVDPNARVSIGDKRVKGHERIQHWQETLHHEMRFRMQVDSYEVQGEKVRFNVRVQYDINGQPVDDRMTLVVQFDNGRIKSVEYQIPTEMKRDLKR | 0.032
DEEKILRVLKEVVKAIQNGNKEEVRKKGKPDVEVQLADERNRGVDQLVRLAEFDKKLGVQFEYKETRQKGGKMTTVVEVTLDGTTIRYEVHVEAEGGKVKRWEVRMDKKFIRIAQES | 0.077
DEEAVKKMMEEWHKALESKNDDQFRKIYKPNVEWVNGDTKRQGQEDVVKMLQKVQKDGAEFQVRDAKVEGDRARMVYDLNVGDKTATFTVEMDAEGGRVDRVQVEIDEKAKKVLTEG | 0.294
DEEDNETALRTMMELIVEGNTNQAHRLFDENATVKIGDTTFHGREQIAQAIRHLHEQADHMEVKDFRLTGDKARANVQLHHNGKTIEVDVVFRVSNGRVKHMFIDPQQVRHLRG | 1.05
